Test results as given in paper PMC5025888 (Scientific Reports, 2016).

Molecular target: NS1 of rgPR8-NS1-WT virus (Influenza A virus A/Puerto …, UniProt P03496)
Assay: Western blot
Details: one partner purified

Sequence of NS1 of rgPR8-NS1-WT virus (P03496 whole entry): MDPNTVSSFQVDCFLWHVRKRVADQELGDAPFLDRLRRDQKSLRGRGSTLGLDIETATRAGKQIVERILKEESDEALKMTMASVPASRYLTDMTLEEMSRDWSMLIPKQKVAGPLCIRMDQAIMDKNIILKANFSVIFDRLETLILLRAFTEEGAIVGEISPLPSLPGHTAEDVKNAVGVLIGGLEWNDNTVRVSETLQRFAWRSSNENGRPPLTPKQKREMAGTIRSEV

B1: monoclonal antibody 2H6 (antibody, V domains shown)
VH: DVKLVESGGGLVNLGGSLKLSCAASGFTFSRYYMSWVRQTPEKRLELVAAINHNSGRTYYSDTVKGRFTISRDNAKNTLYLQMSSLKSEDTALYYCTRHPLIYHGNYLDYWGQGTTLTVSS
VL: DIVLTQSPASLAVSLGQRATISCKASQSVDYDGDSYVTWYQQKPGQPPKLLIYVASNLESGIPARFSGSGSGTDFTLNIHPVEEEDAATYYCQQSNEDPWTFGGGTKLEIK
Q: Does B1 bind?
A: Result: binds
